Reference: PMC5493754, “Myosin 7 and its adaptors link cadherins to actin” (Nature Communications, 2017)

T1: Myo7a MF1.SH3 (Mus musculus, UniProt P97479)
T1 chain: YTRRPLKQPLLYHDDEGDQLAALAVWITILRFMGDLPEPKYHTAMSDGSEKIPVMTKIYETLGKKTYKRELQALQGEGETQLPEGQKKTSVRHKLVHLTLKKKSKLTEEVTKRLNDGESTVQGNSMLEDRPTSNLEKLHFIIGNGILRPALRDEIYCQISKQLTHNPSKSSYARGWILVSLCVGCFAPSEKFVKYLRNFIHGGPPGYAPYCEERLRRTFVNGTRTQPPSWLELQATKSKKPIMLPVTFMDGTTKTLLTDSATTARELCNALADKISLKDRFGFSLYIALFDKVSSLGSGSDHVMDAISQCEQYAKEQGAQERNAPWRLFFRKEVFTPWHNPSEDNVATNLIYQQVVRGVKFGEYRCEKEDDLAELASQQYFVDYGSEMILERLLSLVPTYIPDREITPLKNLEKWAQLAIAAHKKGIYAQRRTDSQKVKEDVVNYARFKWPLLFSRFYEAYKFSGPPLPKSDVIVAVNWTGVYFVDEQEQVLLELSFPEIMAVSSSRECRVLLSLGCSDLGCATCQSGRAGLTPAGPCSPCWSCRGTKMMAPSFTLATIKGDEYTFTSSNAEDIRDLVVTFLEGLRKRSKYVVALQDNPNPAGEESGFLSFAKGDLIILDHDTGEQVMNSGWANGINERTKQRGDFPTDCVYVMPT

T2: Myosin 7a MF1.SH3 (human, UniProt Q13402-1 991-1692, residues 1523-1560 were deleted from MF1)
T2 construct: Myosin 7a, human, N-terminal MyTH4-FERM domain and SH3, residues 991-1692 of UniProt Q13402-1; residues 1523-1560 deleted; Thrombin site of the vector replaced by an SSG linker; also called M7a MF1.SH3; Myo7a MF1.SH3; source: E. coli (BL21-AI, BL21 (DE3) Rosetta or BL21-Gold (DE3)), purified (Histrap, CaptoQ, gel filtration)
T2 sequence (looked up): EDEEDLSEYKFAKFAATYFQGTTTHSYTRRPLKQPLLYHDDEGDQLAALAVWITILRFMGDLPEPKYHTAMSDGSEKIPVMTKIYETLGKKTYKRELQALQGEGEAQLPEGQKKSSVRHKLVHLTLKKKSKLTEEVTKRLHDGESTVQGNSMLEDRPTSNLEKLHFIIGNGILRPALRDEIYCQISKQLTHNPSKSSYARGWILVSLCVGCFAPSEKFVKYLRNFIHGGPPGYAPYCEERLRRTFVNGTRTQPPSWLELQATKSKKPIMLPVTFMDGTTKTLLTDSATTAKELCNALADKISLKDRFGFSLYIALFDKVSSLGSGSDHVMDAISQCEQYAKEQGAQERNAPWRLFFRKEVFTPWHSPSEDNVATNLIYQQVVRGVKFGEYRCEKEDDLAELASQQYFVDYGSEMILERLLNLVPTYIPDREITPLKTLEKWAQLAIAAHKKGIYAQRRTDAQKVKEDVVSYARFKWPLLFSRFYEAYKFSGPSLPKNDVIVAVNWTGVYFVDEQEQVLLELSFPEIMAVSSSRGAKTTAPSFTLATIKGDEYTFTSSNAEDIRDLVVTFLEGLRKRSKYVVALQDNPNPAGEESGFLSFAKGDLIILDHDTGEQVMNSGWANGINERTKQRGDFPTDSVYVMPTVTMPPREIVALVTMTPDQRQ

T3: YFP-Full length (FL)-harmonin (harmonin-a1) (human, UniProt Q9Y6N9-1 1-552)
T3 construct: Harmonin-a1 (USH1C), human, residues 1-552 of UniProt Q9Y6N9-1; also called ^YFPFL (isoA); ^YFPFL; source: E. coli BL21 (DE3) Rosetta, purified (Glutathione Sepharose 4B, size-exclusion chromatography)
T3 sequence (looked up): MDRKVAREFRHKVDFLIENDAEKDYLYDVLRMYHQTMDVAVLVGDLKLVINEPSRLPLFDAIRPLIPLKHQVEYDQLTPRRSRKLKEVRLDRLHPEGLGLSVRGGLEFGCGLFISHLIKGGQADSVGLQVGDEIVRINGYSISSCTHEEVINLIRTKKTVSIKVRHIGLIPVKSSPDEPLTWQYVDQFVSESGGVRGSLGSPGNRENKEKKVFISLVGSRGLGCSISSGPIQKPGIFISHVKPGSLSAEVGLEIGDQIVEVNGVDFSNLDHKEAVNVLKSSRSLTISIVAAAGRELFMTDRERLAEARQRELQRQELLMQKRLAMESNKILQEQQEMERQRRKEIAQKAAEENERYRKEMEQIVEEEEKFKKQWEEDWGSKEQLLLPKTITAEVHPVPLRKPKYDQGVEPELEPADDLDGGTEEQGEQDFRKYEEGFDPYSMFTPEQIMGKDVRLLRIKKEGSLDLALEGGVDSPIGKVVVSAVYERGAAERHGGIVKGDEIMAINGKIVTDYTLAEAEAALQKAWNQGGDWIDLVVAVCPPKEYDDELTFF

T4: Myosin 7b MF1.SH3 (human, UniProt Q6PIF6 958-1586)
T4 construct: also called M7b MF1.SH3; Myo7b MF1.SH3; source: E. coli (BL21-AI, BL21 (DE3) Rosetta or BL21-Gold (DE3)), purified (Histrap, CaptoQ, gel filtration)
T4 sequence: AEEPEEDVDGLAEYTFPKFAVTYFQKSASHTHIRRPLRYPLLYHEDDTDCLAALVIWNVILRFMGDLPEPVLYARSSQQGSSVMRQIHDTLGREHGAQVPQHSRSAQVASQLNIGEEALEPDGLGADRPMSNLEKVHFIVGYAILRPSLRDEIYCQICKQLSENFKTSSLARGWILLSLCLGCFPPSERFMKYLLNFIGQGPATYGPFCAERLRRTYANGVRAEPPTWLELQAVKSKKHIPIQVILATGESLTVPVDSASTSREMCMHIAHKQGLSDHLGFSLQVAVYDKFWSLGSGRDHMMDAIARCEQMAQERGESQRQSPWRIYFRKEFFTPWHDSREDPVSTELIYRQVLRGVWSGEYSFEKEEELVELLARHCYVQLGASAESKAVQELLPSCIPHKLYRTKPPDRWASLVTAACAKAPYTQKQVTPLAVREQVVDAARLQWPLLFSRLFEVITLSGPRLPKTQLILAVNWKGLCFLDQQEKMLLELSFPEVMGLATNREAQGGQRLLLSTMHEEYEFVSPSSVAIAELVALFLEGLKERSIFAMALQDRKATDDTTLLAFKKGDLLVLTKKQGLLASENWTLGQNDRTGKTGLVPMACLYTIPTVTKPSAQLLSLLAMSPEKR

T5: YFP-Myosin 7b MF1.SH3 (human, UniProt Q6PIF6 958-1586)
T5 construct: Myosin 7b, human, MF1.SH3, residues 958-1586 of UniProt Q6PIF6; pET14-YFP vector; also called ^YFPM7b MF1.SH3; source: E. coli (BL21-AI, BL21 (DE3) Rosetta or BL21-Gold (DE3)), purified (Histrap, CaptoQ, gel filtration)
T5 sequence: T4 sequence

B1: ANKS4B CEN-PBM (protein)
chain: VEEDDDVQHESILNRPGLGSIVFSRNRVLDFEDISDSKRELGFKMPSELFQRQGAAGTVEEEEEEEEEEEEEKREANGTAGDLPWDEEEVEWEEDAVDATPLEVFLQSQHLEEFLPIFMREQIDLEALLLCSDEDLQNIHMQLGPRKKVLSAIDKRKQVLQQPGQLVDTSL
B2: SANS_(CEN-PBM) (domain or fragment, UniProt Q495M9 300-461, looked up)
chain: DSGHDSLFTRPGLGTMVFRRNYLSSGLHGLGREDGGLDGVGAPRGRLQSSPSLDDDSLGSANSLQDRSCGEELPWDELDLGLDEDLEPETSPLETFLASLHMEDFAALLRQEKIDLEALMLCSDLDLRSISVPLGPRKKILGAVRRRRQAMERPPALEDTEL
notes: source: E. coli (BL21-AI, BL21 (DE3) Rosetta or BL21-Gold (DE3)), purified (Histrap, CaptoQ, gel filtration)
B3: Harmonin NPDZ1 (non-fluorescent, as used in MST and SEC-MALS) (domain or fragment, human, UniProt Q9Y6N9-1 1-197, looked up)
chain: MDRKVAREFRHKVDFLIENDAEKDYLYDVLRMYHQTMDVAVLVGDLKLVINEPSRLPLFDAIRPLIPLKHQVEYDQLTPRRSRKLKEVRLDRLHPEGLGLSVRGGLEFGCGLFISHLIKGGQADSVGLQVGDEIVRINGYSISSCTHEEVINLIRTKKTVSIKVRHIGLIPVKSSPDEPLTWQYVDQFVSESGGVRG
notes: Harmonin-a1 (USH1C), human, N-terminal domain and PDZ1, residues 1-197 of UniProt Q9Y6N9-1; source: E. coli BL21 (DE3) Rosetta, purified (Glutathione Sepharose 4B, size-exclusion chromatography)
B4: ANKS4B_(CEN-PBM) with YFP-harmonin NPDZ1.PDZ2 (complex)
chain 1: SVHHESILNRPGLGSIVFRRNRISSPEDISDSKREFGFKLPSELLQRQGASEADEGAADEEGEENGLKDDLPWDDDEVEWEEDVVDATPLEVFLLSQHLEEFLPIFKREQIDLEALLLCSDEDLQSIQMQLGPRKKVLNAINRRKQVLQQPGQLVDTSL
chain 2: MDRKVAREFRHKVDFLIENDAEKDYLYDVLRMYHQTMDVAVLVGDLKLVINEPSRLPLFDAIRPLIPLKHQVEYDQLTPRRSRKLKEVRLDRLHPEGLGLSVRGGLEFGCGLFISHLIKGGQADSVGLQVGDEIVRINGYSISSCTHEEVINLIRTKKTVSIKVRHIGLIPVKSSPDEPLTWQYVDQFVSESGGVRGSLGSPGNRENKEKKVFISLVGSRGLGCSISSGPIQKPGIFISHVKPGSLSAEVGLEIGDQIVEVNGVDFSNLDHKEAVNVLKSSRSLTISIVAAAGRELFMTDR
notes: ANKS4B, human, residues 259-417 of UniProt Q8N8V4; as m43; Harmonin-a1 (USH1C), human, residues 1-301 of UniProt Q9Y6N9-1; as m31; also called ANKS4b+^YFPNPDZ1.PDZ2; ^YFPNPDZ1.PDZ2+ANKS4B_(CEN-PBM); source: purified E. coli proteins mixed
B5: ANKS4B_(CEN-PBM) (domain or fragment)
chain: B4 chain 1
notes: ANKS4B, human, residues 259-417 of UniProt Q8N8V4; source: E. coli (BL21-AI, BL21 (DE3) Rosetta or BL21-Gold (DE3)), purified (Histrap, CaptoQ, gel filtration)
B6: YFP-SANS_(CEN-PBM) saturated with harmonin NPDZ1.PDZ2 (complex)
chain 1: B2 chain
chain 2: B4 chain 2
notes: SANS (USH1G), residues 300-461 of UniProt Q495M9; as m40; Harmonin-a1 (USH1C), human, residues 1-301 of UniProt Q9Y6N9-1; as m30; also called ^YFPSANS_(CEN-PBM)+NPDZ1.PDZ2; source: purified E. coli proteins mixed (saturating NPDZ1.PDZ2); not shown: YFP, N-terminal, kept

How the values were obtained:
Myo7a MF1.SH3 = target: T1, Myo7a MF1.SH3
Myosin 7a MF1.SH3 [1] = target: T2, Myosin 7a MF1.SH3; test: SEC-MALS; Superdex 10/300 Increase; 20 mM Tris pH 7.0, 100 mM NaCl, 1 mM EGTA, 0.5 mM TCEP; samples at about 20 mg/ml; details: both partners purified
[2] = target: T3, YFP-Full length (FL)-harmonin …; test: MST; as a1 but 150 mM NaCl (for FL-Harmonin-a); YFP-fused partner constant at 100 nM, non-fluorescent protein titrated; details: both partners purified
SANS_(CEN-PBM) = target: B2; test: SEC-MALS; Superdex 10/300 Increase; 20 mM Tris pH 7.0, 100 mM NaCl, 1 mM EGTA, 0.5 mM TCEP; samples at about 20 mg/ml; details: both partners purified
Myosin 7b MF1.SH3 = target: T4, Myosin 7b MF1.SH3; test: MST; YFP-fused partner held together with a third protein (saturating concentrations; competition experiments), non-fluorescent protein titrated; details: both partners purified
YFP-Myosin 7b MF1.SH3 = target: T5, YFP-Myosin 7b MF1.SH3; test: MST; YFP-fused partner constant at 100 nM, non-fluorescent protein titrated (16 two-fold dilutions); 20 mM Hepes pH 7.0, 100 mM NaCl, 1 mM EGTA, 0.5 mM TCEP, 0.05% Tween 20; Monolith NT.115; details: both partners purified
Myosin 7a MF1.SH3 [3] = target: T2, Myosin 7a MF1.SH3; test: MST; YFP-fused partner held together with a third protein (saturating concentrations; competition experiments), non-fluorescent protein titrated; details: both partners purified

Binder: B1
Kd (Myo7a MF1.SH3): ~5 µM

Binder: B2
stoichiometry N (Myosin 7a MF1.SH3 [1]): 1

Binder: B3
Kd [2]: 11.3 µM
stoichiometry N (SANS_(CEN-PBM)): 1

Binder: B4
Kd (Myosin 7b MF1.SH3): 4 µM

Binder: B5
Kd (YFP-Myosin 7b MF1.SH3): 2.9 ± 0.03 µM

Binder: B6
Kd (Myosin 7a MF1.SH3 [3]): 0.386 µM
